Key:
Experiment in all cases: cell_activity
ZFN 12172 (engineered) = settings: pair with ZFN 12176; CHO clone 1F1.6, Surveyor
ZFN 12176 (engineered) = settings: pair with ZFN 12172; CHO clone 1F1.6, Surveyor
ZFN 8365 (engineered) = settings: pair with ZFN 8361; CHO cells, Surveyor
ZFN 9477 (engineered) = settings: pair with ZFN 9476; CHO-S GS-/- B3, Surveyor
ZFN 9075 (engineered) = settings: pair with ZFN 9372
ZFN 9372 (engineered) = settings: pair with ZFN 9075
ZFN 9476 (engineered) = settings: pair with ZFN 9477; CHO-S GS-/- B3, Surveyor
ZFN 9461 (engineered) = settings: pair with ZFN 7844; CHO-S GS-/- B3, Surveyor
ZFN 8361 (engineered) = settings: pair with ZFN 8365; CHO cells, Surveyor
ZFN 7844 (engineered) = settings: pair with ZFN 9461; CHO-S GS-/- B3, Surveyor
[1] = HEK293, CEL-I, also active in K562
[2] = wt FokI, CHO-K1, Surveyor, 24% with obligate heterodimer FokI, 25% in CHO-S

With “AAGGAGGCAAAGACAAAG (double strand) [CHO FUT8 exon 10 ZFN 12172 half-site]” the activity (% modified alleles) (ZFN 12172 (engineered)) was 7.5.

“AAGAAGGGTCATCAG (double strand) [CHO FUT8 exon 10 ZFN 12176 half-site]” gave an activity (% modified alleles) (ZFN 12176 (engineered)) of 7.5.

With “TATACATGGCTTGGACTTTCTCACCCTG (double strand) [CHO GS exon 2 ZFN 8365 half-site]” the activity (% modified chromosomes) (ZFN 8365 (engineered)) was 7.

In the case of “AGTCCGGGGGGTGGTG (double strand) [CHO DHFR intron 1 ZFN 9477 half-site]”, the activity (% modified alleles) (ZFN 9477 (engineered)) is reported as 18.

human GS exon 6 target gave an activity (ZFN 9075 (engineered); [1]) of 21 % NHEJ and an activity (ZFN 9372 (engineered); [1]) of 21 % NHEJ.

Substance “GTTCCCAGGAATGGGCTTGGGG (double strand) [CHO GS exon 6 ZFN 9372 half-site]” has an activity (% modified chromosomes) (ZFN 9372 (engineered); [2]) of 26.

“GAATGGTGCAGGCTGC (double strand) [CHO GS exon 6 ZFN 9075 half-site]” showed an activity (% modified chromosomes) (ZFN 9075 (engineered); [2]) of 26.

Work on “CATGGGTAGCCGCTGA (double strand) [CHO DHFR intron 1 ZFN 9476 half-site]” yielded an activity (% modified alleles) (ZFN 9476 (engineered)) of 18.

“AGGGAAGGTCTCCGTT (double strand) [CHO DHFR exon 1 ZFN 9461 half-site]” gave an activity (% modified alleles) (ZFN 9461 (engineered)) of 15.

“CTGGGTTGATGGTACTGGAGAAGGACTG (double strand) [CHO GS exon 2 ZFN 8361 half-site]” was tested, and the activity (% modified chromosomes) (ZFN 8361 (engineered)) was 7.

“CCAATGCTCAGGTACT (double strand) [CHO DHFR exon 1 ZFN 7844 half-site]” was tested, and the activity (% modified alleles) (ZFN 7844 (engineered)) was 15.

— patent US20100129869
